T1: PnsB1 (Arabidopsis thaliana (endogenous in the …, UniProt Q9S9N6 45-461))
T1 sequence (looked up): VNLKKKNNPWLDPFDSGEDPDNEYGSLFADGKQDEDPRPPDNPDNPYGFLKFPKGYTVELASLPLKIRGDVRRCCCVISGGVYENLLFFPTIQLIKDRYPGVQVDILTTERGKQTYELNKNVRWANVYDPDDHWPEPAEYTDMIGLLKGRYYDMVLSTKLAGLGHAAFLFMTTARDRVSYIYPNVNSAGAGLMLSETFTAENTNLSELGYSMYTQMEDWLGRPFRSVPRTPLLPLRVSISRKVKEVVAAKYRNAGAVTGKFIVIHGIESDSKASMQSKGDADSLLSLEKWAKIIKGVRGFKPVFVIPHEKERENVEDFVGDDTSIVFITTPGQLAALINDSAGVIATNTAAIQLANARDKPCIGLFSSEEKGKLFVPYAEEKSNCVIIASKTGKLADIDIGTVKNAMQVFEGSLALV

T2: NdhD (Arabidopsis thaliana (endogenous in the …, UniProt P26288 1-500))
T2 sequence (looked up): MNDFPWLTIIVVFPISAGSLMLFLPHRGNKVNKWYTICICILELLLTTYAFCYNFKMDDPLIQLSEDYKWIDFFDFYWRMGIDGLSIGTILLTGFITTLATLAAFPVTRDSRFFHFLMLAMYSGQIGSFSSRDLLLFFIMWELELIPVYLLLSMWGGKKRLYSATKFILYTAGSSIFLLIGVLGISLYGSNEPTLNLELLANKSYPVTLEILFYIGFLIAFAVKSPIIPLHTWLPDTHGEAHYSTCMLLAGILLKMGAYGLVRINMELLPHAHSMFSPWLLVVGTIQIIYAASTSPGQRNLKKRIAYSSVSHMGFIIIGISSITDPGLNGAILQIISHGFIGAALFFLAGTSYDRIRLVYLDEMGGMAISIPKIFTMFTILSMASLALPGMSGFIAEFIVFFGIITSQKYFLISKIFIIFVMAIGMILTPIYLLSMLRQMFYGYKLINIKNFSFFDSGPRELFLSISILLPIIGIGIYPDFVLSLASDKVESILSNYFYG

T3: Lhca5 (Arabidopsis thaliana (endogenous in the …, UniProt Q9C639 33-256))
T3 sequence (looked up): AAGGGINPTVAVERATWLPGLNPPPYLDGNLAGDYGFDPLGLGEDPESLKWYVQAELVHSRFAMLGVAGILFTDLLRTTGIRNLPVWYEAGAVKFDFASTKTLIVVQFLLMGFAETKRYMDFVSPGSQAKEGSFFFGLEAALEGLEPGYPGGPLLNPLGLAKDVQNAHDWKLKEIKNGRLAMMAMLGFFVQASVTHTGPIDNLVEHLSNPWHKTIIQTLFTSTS

T4: PnsL1 (Arabidopsis thaliana (endogenous in the …, UniProt O80634 81-238))
T4 sequence (looked up): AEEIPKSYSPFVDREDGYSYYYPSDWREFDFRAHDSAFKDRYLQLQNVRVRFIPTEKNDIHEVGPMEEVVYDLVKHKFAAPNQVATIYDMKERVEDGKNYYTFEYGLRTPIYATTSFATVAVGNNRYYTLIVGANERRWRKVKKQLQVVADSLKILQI

T5: PnsL2 (Arabidopsis thaliana (endogenous in the …, UniProt Q9XI73 69-190))
T5 sequence (looked up): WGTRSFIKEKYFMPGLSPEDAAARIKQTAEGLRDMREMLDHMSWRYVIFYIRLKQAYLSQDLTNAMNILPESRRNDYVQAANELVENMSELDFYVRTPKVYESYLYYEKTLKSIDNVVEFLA

T6: Lhca6 (Arabidopsis thaliana (endogenous in the …, UniProt Q8LCQ4 34-270))
T6 sequence (looked up): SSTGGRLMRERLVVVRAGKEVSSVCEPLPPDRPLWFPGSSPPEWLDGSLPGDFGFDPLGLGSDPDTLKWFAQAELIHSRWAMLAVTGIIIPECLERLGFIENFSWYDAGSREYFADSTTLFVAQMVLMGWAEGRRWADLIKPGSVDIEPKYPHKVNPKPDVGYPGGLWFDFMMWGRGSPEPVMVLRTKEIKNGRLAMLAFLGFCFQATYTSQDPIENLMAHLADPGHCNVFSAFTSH

B1: PnsB4 (natural protein, UniProt Q8RXS1 25-175, looked up)
chain: QNSGPNHGYWLSKNVNEKRERNLMRGSLCVRKALPHDLPLMAVMVQQIEGMRDIITEKHVWHLSDKAIKNVYMFYIMFTCWGCLYFGSAKDPFYDSEEYRGDGGDGTGYWVYETQEDIEEKARAELWREELIEEIEQKVGGLRELEEAVTK
B2: Lhca1 (natural protein, UniProt Q01667 36-241, looked up)
chain: AGNVGRIRMAAHWMPGEPRPAYLDGSAPGDFGFDPLGLGEVPANLERYKESELIHCRWAMLAVPGILVPEALGYGNWVKAQEWAALPGGQATYLGNPVPWGTLPTILAIEFLAIAFVEHQRSMEKDPEKKKYPGGAFDPLGYSKDPKKLEELKVKEIKNGRLALLAFVGFCVQQSAYPGTGPLENLATHLADPWHNNIGDIVIPFN
B3: NdhC (natural protein, UniProt P56751 1-120, looked up)
chain: MFLLYEYDIFWAFLLISSAIPVLAFLISGVLSPIRKGPEKLSSYESGIEPIGDAWLQFRIRYYMFALVFVVFDVETVFLYPWAMSFDVLGVSAFIEAFIFVLILILGLVYAWRKGALEWS
B4: PnsL3 (natural protein)
chain: not shown
B5: NdhE (natural protein, UniProt P26289 1-101, looked up)
chain: MILEHVLVLSAYLFLIGLYGLITSRNMVRALMCLELILNAVNMNFVTFSDFFDNSQLKGEIFCIFVIAIAAAEAAIGLAIVSSIYRNRKSIRINQSTLLNK
B6: PnsB5 (natural protein, UniProt Q9FG89 49-212, looked up)
chain: AAGLSQIEPDINEDPIGQFETNSIEMEDFKYGYYDGAHTYYEGEVQKGTFWGAIADDIAAVDQTNGFQGLISCMFLPAIALGMYFDAPGEYLFIGAALFTVVFCIIEMDKPDQPHNFEPQIYKLERGARDKLINDYNTMSIWDFNDKYGDVWDFTIEKDDIATR

Experiments:
Experiment in all cases: cryo-EM structure
PnsB1 = target: T1, PnsB1
NdhD = target: T2, NdhD
PnsB5 = target: B6
Lhca5 = target: T3, Lhca5
PnsL1 = target: T4, PnsL1
PnsL2 = target: T5, PnsL2
PnsB4 = target: B1
NdhF = NdhF (Arabidopsis thaliana (endogenous in the …, UniProt P56752 1-746))
Lhca6 = target: T6, Lhca6

NdhF (Arabidopsis thaliana, sequence (P56752 whole entry): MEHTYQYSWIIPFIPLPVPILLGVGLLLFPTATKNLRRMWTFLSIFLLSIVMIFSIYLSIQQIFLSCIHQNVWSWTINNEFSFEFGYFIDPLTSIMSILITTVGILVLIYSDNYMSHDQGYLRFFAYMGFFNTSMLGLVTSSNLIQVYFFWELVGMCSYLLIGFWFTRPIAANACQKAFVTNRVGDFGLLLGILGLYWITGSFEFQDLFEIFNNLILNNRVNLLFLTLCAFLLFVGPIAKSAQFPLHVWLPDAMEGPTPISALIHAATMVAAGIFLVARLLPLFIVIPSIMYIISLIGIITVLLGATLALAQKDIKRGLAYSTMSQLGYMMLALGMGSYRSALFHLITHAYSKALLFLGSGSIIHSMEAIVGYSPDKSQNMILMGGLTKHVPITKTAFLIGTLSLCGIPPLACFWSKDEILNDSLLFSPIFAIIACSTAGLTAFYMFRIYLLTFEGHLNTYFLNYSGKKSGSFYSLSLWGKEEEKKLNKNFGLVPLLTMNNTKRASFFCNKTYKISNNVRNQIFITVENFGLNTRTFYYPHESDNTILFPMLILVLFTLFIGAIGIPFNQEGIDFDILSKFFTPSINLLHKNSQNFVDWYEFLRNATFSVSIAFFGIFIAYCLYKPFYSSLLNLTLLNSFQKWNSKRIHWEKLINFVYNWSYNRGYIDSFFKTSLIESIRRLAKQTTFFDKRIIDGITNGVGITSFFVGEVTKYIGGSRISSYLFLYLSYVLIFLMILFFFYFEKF

binding result (PnsB1) | binding result (NdhD) | binding result (PnsL1) | binding result (PnsL2) | Binder | further results
binds | binds | – | – | B1 | binding result (PnsB5): binds
– | – | – | – | B2 | binding result (Lhca5): binds
– | – | binds | binds | B3 | –
– | binds | – | – | B4 | binding result (PnsB4): binds; binding result (NdhF): binds
– | – | binds | binds | B5 | –
binds | binds | – | – | B6 | binding result (Lhca6): binds
